Experimental findings from publication PMC6637015 are described below.

Test [1] has as its target c-Abl SH2 domain, 127-217 (UniProt P00520). The experiment in a line: GST-SH2 pull-down from cell lysate. To be noted: reference: wild type; sites Y281.
The target in test [2] is c-Abl (UniProt P00520). The test is described as follows: streptavidin precipitation of ligated FcRL1, c-Abl blot. Particulars: reference: wild type; sites Y281.
Test [3] has as its target c-Abl (UniProt P00520). The experiment in a line: GSH-bead precipitation of co-expressed c-Abl–mCherry-GST. To be noted: reference: wild type, sites Y281.

As to “FcRL1 (Fc receptor-like 1) (from UniProt Q8R4Y0) Y281F”, the “binding against the reference” value in test [1] and in test [2] was “lost” each time.

For “FcRL1 (Fc receptor-like 1) (from UniProt Q8R4Y0) Y281F, BCR ligation”, in test [3] (BCR ligation), the “binding against the reference” value is “lost”.

Take “FcRL1 (Fc receptor-like 1) (from UniProt Q8R4Y0) Y281F, FcRL1 ligation”: the “binding against the reference” value in test [3] (FcRL1 ligation) was “lost”.
